This is an account of results in publication PMC8887474.

The data set has as its target YTHDC1 YTH domain (Homo sapiens, UniProt Q96MU7 345-509). The data set can be described thus: ITC.
In turn, GGCGUAUCGGCGCC (structured_RNA, m6A at position 6) [UG-mismatch (m6A)UCG Xist hairpin] showed a dissociation constant Kd of 2050 ± 100 nM.

The molecule CCAUCG (ssRNA, m6A at position 3) [CC(m6A)UCG hexamer] gave a Kd of 1270 ± 240 nM.

Take GGCGCAUCGGCGCC (structured_RNA, m6A at position 6) [(m6A)UCG Xist tetraloop hairpin]: the Kd was 3030 ± 530 nM.
